This series addresses thrombin (native human beta-thrombin) (Homo sapiens, UniProt P00734;P00734 P00734:328-363,P00734:364-622). Nature of the series: ITC; physiological buffer pH 7.4, 25 C.

B1: D-6 aptamer (ssDNA)
DNA: CGGATCCAGTTACGGACTGAACAGAAGGGTGGTGTGGTTGGACTGTTCATTCAGTAAGCTTCGG
Turning to B1, the affinity, expressed as Kd, was 27 nM.

The record behind these values is patent US20250027090, “MIRROR-IMAGE SELECTION OF L-NUCLEIC ACID APTAMERS” (Tsinghua University, published 2025).
